This note sets out measurements from article PMC2785850.

Assay [1] concerns the target LexA-Trx1 fusion protein (UniProt P22217). In words: yeast one-hybrid interaction assay.
Assay [2] addresses histidine-tagged human thioredoxin (human) (UniProt P10599). In words: pull-down.
Sequence of UniProt P10599 (P10599 whole entry): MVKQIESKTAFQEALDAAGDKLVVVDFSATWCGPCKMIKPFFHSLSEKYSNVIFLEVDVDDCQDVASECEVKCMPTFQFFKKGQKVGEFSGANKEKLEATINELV

Sequence of UniProt P22217 (P22217 2-103): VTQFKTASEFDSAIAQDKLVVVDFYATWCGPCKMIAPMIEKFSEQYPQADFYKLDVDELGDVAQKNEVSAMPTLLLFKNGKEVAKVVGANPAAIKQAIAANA

For “human p53 expressed in yeast from pRS415-p53 (from UniProt P04637 1-393) (natural protein)”, in assay [1], the β-gal activity (nmol ONP / min 10^7 cells) is 6.56.

On to “purified baculovirus-expressed human p53 (from UniProt P04637 1-393) (natural protein)”, for which, in assay [2], the Kd (commonly the constant that tells how readily two partners part at equilibrium) is 940 nM.
